Test results reported in PMC4070737 (Cytoskeleton (Hoboken, N.J.), 2013).

Target: the molecule itself
Assay: AUC

B1: EB1_(248), activated fragment of human EB1 lacking the autoinhibitory tail domain (domain or fragment, UniProt Q15691 1-248, looked up)
chain: MAVNVYSTSVTSDNLSRHDMLAWINESLQLNLTKIEQLCSGAAYCQFMDMLFPGSIALKKVKFQAKLEHEYIQNFKILQAGFKRMGVDKIIPVDKLVKGKFQDNFEFVQWFKKFFDANYDGKDYDPVAARQGQETAVAPSLVAPALNKPKKPLTSSSAAPQRPISTQRTAAAPKAGPGVVRKNPGVGNGDDEAAELMQQVNVLKLTVEDLEKERDFYFGKLRNIELICQENEGENDPVLQRIVDILYA
- stoichiometry N: 2
